Laboratory results: PMC5148590

How the values were obtained:
[1] = target: Photobacterium profundum α-carbonic anhydrase (Photobacterium profundum SS9); assay: non-reducing SDS-PAGE with protonography; purified PprCA in Laemmli loading buffer without 2-mercaptoethanol, 12% SDS gel, stained with Coomassie blue or by in-gel CO2 hydratase activity (bromothymol blue)
[2] = target: Photobacterium profundum α-carbonic anhydrase (Photobacterium profundum SS9); assay: SEC; Hiprep 16/60 Sephacryl S-200 equilibrated with 20 mM Tris pH 7.5 and 150 mM NaCl; dimer to monomers

stoichiometry N [1]: 2
stoichiometry N [2]: 2
Substance: Photobacterium profundum α-carbonic anhydrase (enzyme)
